Experimental data from the supplement of paper PMC10567573.

B1: PSD2 (parent)
chain: LTHFSRRYCQCNPDDSTSEDGIHT

Variants of: B1
Assay: protein stability index of a GFP-peptide fusion (GPS, HEK-293T) (PSI 1-6); higher = more stable
Conditions: c terminus: a fixed tail appended
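Also: lentivirally expressed fusions sorted by FACS into six bins by GFP to DsRed ratio, PSI derived from sequencing read proportions per bin multiplied by bin number.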

Protein stability index, by site and new letter:
T17: P 3.68 | I 2.85 | G 2.7 | S 2.78 | Q 3.89 | R 2.78 | H 3.18 | D 4.02 | K 3.6 | W 2.17 | C 2.72 | F 2.77 | Y 2.39 | M 3.09 | A 3.02 | E 3.41 | L 2.66 | V 2.78 | N 3.6
C11: Y 3.74 | K 4.52 | V 4.5 | R 4.18 | S 4.61 | Q 4.71 | T 4.31 | H 4.17 | E 4.38 | F 3.12 | A 4.22 | L 3.65 | D 4.31 | G 4.56 | M 3.84 | N 4.41 | I 4.31 | P 4.41
S18: E 3.17 | H 3.5 | G 2.93 | A 3.7 | D 4.03 | C 3.69 | I 2.99 | F 2.63
C9: R 4.1 | Q 5.06 | N 4.09 | W 3.57 | P 4.64 | Y 4.06 | S 4.78 | V 4.13 | T 4.12
Q10: P 3.41 | N 2.18 | T 3.35 | V 2.9 | G 3.21 | W 2.51 | M 2.19 | R 2.24 | L 2.63 | F 2.25 | K 2.71 | C 2.63 | S 2.55 | Y 3.01 | A 3.72 | E 3.87 | D 3.84 | H 2.88 | I 1.97
N12: M 3.52 | I 2.77 | Y 2.39 | W 3.13 | G 2.83 | P 3.63 | F 2.69 | C 2.82 | T 3.69 | L 2.96 | R 3.21 | H 3.67 | V 3.11 | K 3.37 | D 4.66 | Q 3.13 | E 4 | A 3.34 | S 4.01
D15: I 2.1 | L 2.26 | Y 3.23 | C 2.91 | K 2.28 | N 2.41 | Q 2.35 | E 4.1 | R 2.63 | S 2.96 | P 2.46 | F 3.21 | H 2.86 | M 3.21 | V 2.47 | G 2.61 | T 2.79 | W 2.14 | A 2.69
D14: F 2.04 | Y 1.99 | P 2.06 | H 2.14 | I 2.08 | N 2.45 | S 2.49 | E 3.02 | W 1.59 | G 2.35 | T 2.13 | V 2 | C 2.8 | M 2.27 | Q 2.54 | A 2.09 | K 2.49 | L 2.13 | R 2.24
P13: I 2.68 | V 3.11 | Q 3.06 | T 3.5 | G 3.91 | Y 2.44 | S 2.84 | F 2.68 | H 2.76 | W 1.94 | A 2.83 | L 2.71 | N 3.38 | R 3.19 | C 2.73 | K 3.02 | D 4.03 | M 3.2
S16: P 2.86 | K 3.48 | C 2.75 | D 3.17 | Q 3.82 | M 2.64 | H 2.95 | E 3.96 | L 3.15 | F 2.77 | A 2.57 | I 3.18 | N 3.06 | W 1.77 | T 2.94 | V 3.15 | G 3.09 | Y 2.88 | R 2.61
